The supplement of paper PMC9170038

System: MS2 coat protein
Assay: apparent KD of MS2 coat protein; designed switch direction (-1 OFF switch, 1 ON switch): -1; higher = weaker reporter binding
Outline: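 Three titration conditions were used: no input, 200 uM small-molecule ligand, and an oligonucleotide input. In each, SNAP-549-labelled MS2 coat protein was raised from 0.7 or 1.5 nM, doubling, to 3 µM over designed RNA switches transcribed on Illumina chips by stalled E. coli RNA polymerase. Curve fits of normalised cluster fluorescence gave values whose per-design median over clusters is the apparent KD.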

[1] = input ligand: microRNA oligo, concentration not stated
[2] = Eterna round: R95, input ligand: microRNA oligo, concentration not stated
[3] = Eterna round: R95, input ligand: FMN 200 uM
[4] = Eterna round: R95, input ligand: none

Sequence | apparent KD of MS2 coat protein (input ligand: FMN 200 uM) [nM] | apparent KD of MS2 coat protein [1] [nM] | apparent KD of MS2 coat protein (input ligand: none) [nM] | apparent KD of MS2 coat protein [2] [nM] | apparent KD of MS2 coat protein [3] [nM] | apparent KD of MS2 coat protein [4] [nM]
ACACUACAUGUAGGAUAUGCGUGGCGAAGCUAUGCAGAAGGACAUGAGGAUCACCCAUGUUUUAGCGUCUGCGUACAGAUGCGU [JL ENG1 1.46] (Eterna round: R96, puzzle: Exclusion NG 1) | 44.7 | 16.4 | 19.3 |  |  | 
AUUUUAUAUGAAGGAUAUACUUAACAUGAGGAUCACCCAUGUGGUGUUGUGAGUGAGUGAGUUUAGUAGAAGGUCAAUUCUUUU [JMF's solution 98] (Eterna round: R96, puzzle: Exclusion NG 2) | 240 | 185 | 288 |  |  | 
UAUUUAAGAGGAUAUACAUGAGGAUCACCCAUGUAAAAUAAAAUAGAUAAUUUUUUAUGUAGAAGGCUUGGGUA [-12.7, -11.42 kcal, A 39%] (Eterna round: R97, puzzle: Exclusion 3) | 38.5 |  | 40 |  |  | 
CCCAGUUAGUGAGGAUAUCAUACAUGAGGAUCACCCAUGUAAUAAAUGAGGAUUUCGGGUGUCUAUGAGAAGGCACGGAUAGGC [Ostracism 26 - Jieux - Exclusion NG 2] (Eterna round: R96, puzzle: Exclusion NG 2) | 27.2 | 22.2 | 30.4 |  |  | 
CAGUACUGAGGAUAUACAUGAGGAUCACCCAUGUAUCCAAGCUAGGAAACUAGCAAAUGUAGAAGGCAGUACUG [Ex3: 821] (Eterna round: R96, puzzle: Exclusion 3) |  | 30.9 |  |  |  | 
UGGUGUGAAGGAUAUACAUGAGGAUCACCCAUGUAUGAGGUGGAGGUUGAGGUGGAGGGUAGAAGGUCAGGUGG [JR_Exclusion3_Sub012] (puzzle: Exclusion 3) |  |  |  | 26.8 |  | 
CUCUAACACGCAGGAUAUGCAUCACCAUAAUUAGCAGAAGGGCGAAACACAUGAGGAUCACCCAUGUUGAGGAUCACCCAUGAC [Default title] (Eterna round: R96, puzzle: Exclusion NG 1) | 22.1 | 19.9 | 23.6 |  |  | 
UGCAGACGAGGAUAUAAACGAUAUAACAUGAGGAUCACCCAUGUACGAUCGAUAGAUCGUUUAGAAGGCGUCUGCA [E5/9-A2] (Eterna round: R97, puzzle: Exclusion 5) | 12.8 |  | 14.5 |  |  | 
GGUGCGUUUGUGAGGAUAUGCUGGUCCUUGGUUCCGCAGAAGGCACAUGAGGAUCACCCAUGUGGUGUCGUACC [salish99_Bmod_Ex4_044] (puzzle: Brourd's mod of Exclusion 4) |  |  |  | 148 |  | 
UUUGGGUCAGGAUAUUGUUAGUUUAGUUGUUUGUAUUAGUUCGAGAAGGGACAUGAGGAUCACCCAUGUGGUUU [Ex4 #78] (Eterna round: R97, puzzle: Exclusion 4) | 81.4 |  | 85.3 |  |  | 
GUCGUGCGGCUUUGCUGUACGAGUACAUGAGGAUCACCCAUGUAGGAUAUGGCUCGCUUUGCGUGCCAGAAGGGCGUGCGUUGG [Excl-NG3-LRO11] (Eterna round: R96, puzzle: Exclusion NG 3) | 43.2 | 25.6 | 33.6 |  |  | 
AAUAAACAUGAGGAUCACCCAUGUGAGGAUAUCGAAAUAAAUAAUAAAAUAAAUAAAACGAGAAGGCACAAUAA [JMF most obvious solution 3] (puzzle: Exclusion 1) |  |  |  | 46.2 | 40.4 | 47.5
UUUAAGGUAAUUAAGAUCACAUGAGGAUCACCCAUGUAUAUAUAGGAUAUCAGCUCGUGUAGAGCUGAGAAGGAUAUAUACAUA [ExNG3/6-C3] (Eterna round: R96, puzzle: Exclusion NG 3) | 24.9 | 48.3 | 542 |  |  | 
AAGAACUGAGGAUAUGCAAAAGGGAAAGCUGAUCCUCAUCUACAUGAGGAUCACCCAUGUAGAAGGCGGGAAAU [Aveerve] (Eterna round: R96, puzzle: Exclusion 2) | 108 | 50.7 | 74 |  |  | 
GCCACGGGAGGAUAUCGCGGAGGCUACAUGAGGAUCACCCAUGUCUGGUCUUCGUGCUCCCGAGAAGGCCCGUCAG [Bivemaus] (puzzle: Exclusion 5) |  |  |  | 13.2 |  | 
UCUAGACAUGAGGAUCACCCAUGUGAGGAUAUGAUGCGAUCGUCGAAAGACGAUAGCAUCAGAAGGCACAAAUG [Fiskers Ex 1 - 12] (puzzle: Exclusion 1) |  |  |  | 56.9 | 153 | 69.9
AGUCCUAACACGAAAGUGUUAGUACAAUAAGCUUGUGAAACAUGAGGAUCACCCAUGUCCUCAUAAGCUCGUCUUAU [salish99_TOv2_r3_015] (Eterna round: R96, puzzle: Sensor v3, turn-off variant 2) | 15.3 | 449 | 17.7 |  |  | 

Sequence | apparent KD of MS2 coat protein (input ligand: FMN 200 uM) [nM] | apparent KD of MS2 coat protein [1] [nM] | apparent KD of MS2 coat protein (input ligand: none) [nM] | apparent KD of MS2 coat protein [2] [nM] | apparent KD of MS2 coat protein [3] [nM] | apparent KD of MS2 coat protein [4] [nM]
AUUUAUGUUGAGGAUAUGCUAAAAUGUAUAGUUGCAGAAGGCGACACAUGAGGAUCACCCAUGUUCAUGGAAUU [LRO-Ex6-01] (puzzle: Exclusion 6) |  |  |  | 31.3 |  | 
GUAGAGUAAGGAUAUGUAGAAUAGGAUAGAAUGGUUAGAAUGCAGAAGGUACAUGAGGAUCACCCAUGUAAUGU [Excluse me!!!! 5 - Jieux - Exclusion 4] (puzzle: Exclusion 4) |  |  |  | 21.2 |  | 
AACCUGAGGCUUUGCUUUAGGUGUACAUGAGGAUCACCCAUGUAGGAUAUGGUAGGCAAAGCUUACCAGAAGGACAUUGGCGUA [Mat - Exclusion NG 3 - Mod of JL - D40] (Eterna round: R96, puzzle: Exclusion NG 3) | 342 | 94.7 | 107 |  |  | 
AUUUAAUUUAAUAAGAUCACAUGAGGAUCACCCAUGUAUAUAUAGGAUAUCAGCUCGUUUAGAGCUGAGAAGGAUAUAUACAUG [ExNG3/8-A2] (Eterna round: R96, puzzle: Exclusion NG 3) | 22.6 | 20.2 | 36.6 |  |  | 
ACAUGAGGAUCACCCAUGUGACAAGAAUGGCUGAUAAAGAGACAGGAUAUAGGUGCAUAUCUAACCUAGAAGGGUCAUGACUGG [Deportation 74 - Jieux - Exclusion NG 3] (Eterna round: R96, puzzle: Exclusion NG 3) | 38.5 | 28.3 | 38.1 |  |  | 
UCGUAGUCAGGAUAUACAUGAGGAUCACCCAUGUAAAAUUUUAAUUUAAUUUUAAGGUGUAGAAGGGACCAGUU [Ex3 #22] (Eterna round: R97, puzzle: Exclusion 3) | 43.4 |  | 51.8 |  |  | 
UGCAGACGAGGAUAUAAAUUUGAUAACAUGAGGAUCACCCAUGUGAUCGAUAGAUCAAAUUUAGAAGGUGUCUGCA [E5/7-B2] (Eterna round: R97, puzzle: Exclusion 5) | 443 |  | 576 |  |  | 
UUUCCUUGUGUGAGGAUAUACUUGUUUGUGUUUUUGUAGAAGGCACAUGAGGAUCACCCAUGUACUCUUUCCUG [JR_BME4_Sub023] (Eterna round: R96, puzzle: Brourd's mod of Exclusion 4) | 68.6 | 34.7 | 37.7 |  |  | 
GUGAUCUAUCAUGGGAUAAACAUGAGGAUCACCCAUGUACACAAGUUUUUUGCUCGUCUUAUAAUAAGAUAGAUCAC [Antenna 3 - Jieux - Sensor, turn-off variant 1] (Eterna round: R97, puzzle: Sensor, turn-off variant 1) | 21 |  | 20.9 |  |  | 
UUAAUUAGCAGGCAAGAUCAUUACAUGAGGAUCACCCAUGUCGAGGAUAUCAGCUCGUGUAGAGCUGAGAAGGCGACAGCCUGC [ExNG3/13-A3] (Eterna round: R96, puzzle: Exclusion NG 3) | 666 | 207 | 334 |  |  | 
AUUUUGUCAGGAUAUUGUUAGUUUAGUUGUUUGUAUUAGUUCGAGAAGGGACAUGAGGAUCACCCAUGUGAUUA [Ex4 #73] (Eterna round: R97, puzzle: Exclusion 4) | 148 |  | 92.2 |  |  | 
AAGUACCGUCACGAAAGUGAUGGUACAACAAGCAUGUAAACAUGAGGAUCACCCAUGUCCUCAAAUGCUCGUCUUAU [Sensor 3 - 62] (puzzle: Sensor v3, turn-off variant 2) |  |  |  | 2020 | 732 | 776
AAACUGCAUGUGAGGAUAUGCACCAGCUAAGCCGGGCAGAAGGCACAUGAGGAUCACCCAUGUCAUCCUAUUGC [Latibibe] (puzzle: Brourd's mod of Exclusion 4) |  |  |  | 11.6 | 26.5 | 14.4
UCUCGCGGGCAAGGAUAUCCCACACUGUUCUGGCCCGUGUCUGUUACAUGAGGAUCACCCAUGUGGGAGAAGGUGCACCAGGGC [Design 44] (Eterna round: R96, puzzle: Exclusion NG 2) | 78.8 | 31.6 | 35.9 |  |  | 
UAGGUGUGAGGAUAUGGUAAAGAUAAAAUGAUGAAAGAACUCCAGAAGGCACAUGAGGAUCACCCAUGUAGAUG [Mat - Exclusion 4 - Mod of JL - D33] (puzzle: Exclusion 4) |  |  |  | 28.3 |  | 
GUAUAACAUGUAGGAUAUGCGUGGCGAAGCUAUGCAGAAGGACAUGAGGAUCACCCAUGUUUUUGCGUCUGCGUACAGAUGCUA [JL ENG1 1.40] (Eterna round: R96, puzzle: Exclusion NG 1) | 107 | 15.2 | 21.5 |  |  | 
